Stoichiometry N data for 1 substance are collected here from paper doi:10.1101/068965.

The assay concerns the target EGFP-LOV2-OPTN_((412-520)) (Avena sativa | not stated) (UniProt Q96CV9). The assay is described as follows: SEC.

The stoichiometry N is the number of molecules, sites or subunits per partner or assembly. Turning to “EGFP-LOV2-OPTN_((412-520)) (from UniProt Q96CV9 412-520) (designed binder)”, the stoichiometry N is 2.
